Experimental data: patent publication US20160152686A1 (Bristol-Myers Squibb, published 2016)

B1: unmodified (i.e., without ABD) PCSK9 adnectin (designed binder)
chain: VSDVPRDLEVVAATPTSLLISWVPPSDDYGYYRITYGETGGNSPVQEFTVPIGKGTATISGLKPGVDYTITVYAVEFPWPHAGYYHRPISINYRT
notes: also called Enhancer method: None
B2: ABD-(GS)3-C7FL-His6 (anti-VEGFR2 adnectin linked to ABD at its N-terminus) (designed binder)
chain: MGQHDEAVDANSLAEAKVLANRELDKYGVSDYYKNLINNAKTVEGVKALIDEILAALPGSGSGSVSDVPRDLEVVAATPTSLLISWRHPHFPTRYYRITYGETGGNSPVQEFTVPLQPPTATISGLKPGVDYTITVYAVTDGRNGRLLSIPISINYRTGSGSHHHHHH
notes: also called ABD-C7FL; ATI-0001087
B3: PCSK9 adnectin-ABD fusion protein (PCSK9 adnectin-(GS)3-ABD-His6) (designed binder)
chain: MGVSDVPRDLEVVAATPTSLLISWVPPSDDYGYYRITYGETGGNSPVQEFTVPIGKGTATISGLKPGVDYTITVYAVEFPWPHAGYYHRPISINYRTGSGSGSQHDEAVDANSLAEAKVLANRELDKYGVSDYYKNLINNAKTVEGVKALIDEILAALPHHHHHH
notes: Expressed in E. coli; also called PCSK9 Adn-(GS)3-ABD; 2013_E01-(GS)3-ABD (anti-PCSK9)

Tests used:
[1] = target: recombinant human PCSK9 expressed in baculovirus (human, UniProt Q8NBP7 31-692, limits assumed); experiment: PCSK9:EGFA FRET competition assay (inhibition of PCSK9 binding to biotinylated EGFA peptide)
Text: A fluorescence resonance energy transfer (FRET)-based assay was developed to determine the binding affinity and potency of PCSK9-binding adnectins. It was adapted from the general method described previously by Maio et al. (Miao, B. et al., Meth. Enzymol., 357:180-188 (2002); see also WO 2011/130354). The PCSK9:EGFA FRET assay measures the inhibition of PCSK9 binding to the LDLR epidermal growth factor precursor homology domain (EGFA domain), using recombinant human PCSK9 expressed in baculovirus and a synthetic 40-mer EGFA peptide (biotinylated). […] This assay uses a PCSK9 C-terminal domain binding mAb (mAb 4H5) labeled with Eu-chelate to provide FRET interaction with biotinylated EGFA through the streptavidin/allophycocyanin fluorophore complex. […] Thus, the biological activity of PCSK9 adnectin linked to ABD is at least as good as that of the unmodified PCSK9 adnectin.

sol VEGFR2 = experiment: SPR, VEGFR2 immobilized on chip, ABD-(GS)3-C7FL-His6 (0.02 nM-300 nM) as analyte
VEGFR2-Fc = experiment: as above
human serum albumin [2] = target: T1, human serum albumin (human, UniProt P02768 25-609); experiment: SPR, affinity to HSA
T1 construct: also called HSA; HuSA

[3] = target: Cynomolgus monkey serum albumin (given as RhSA in Table 3) (Cynomolgus monkey; RhSA (table)); experiment: SPR, serum albumin immobilized on chip, ABD-(GS)3-C7FL-His6 (0.02 nM-300 nM) as analyte
Protocol: (§1) The binding affinity of ABD-(GS)3-C7FL-His6 to human, mouse and Cynomolgus monkey serum albumin was also measured. In an SPR experiment, the serum albumins were immobilized on chip, and ABD-(GS)3-C7FL-His6 (0.02 nM-300 nM) was flowed as analyte.

mouse serum albumin = target: T2, mouse serum albumin (mouse, UniProt P07724 25-608); experiment: as above
T2 construct: also called MuSA
Protocol: as §1

human serum albumin [4] = target: T1, human serum albumin; experiment: as above
Protocol: as §1

Binder | EC50 [1] | Kd (sol VEGFR2) | koff (sol VEGFR2) | kon (sol VEGFR2) | Kd (VEGFR2-Fc) | koff (VEGFR2-Fc) | kon (VEGFR2-Fc) | Kd (human serum albumin [2]) | Kd [3] | koff [3] | kon [3] | Kd (mouse serum albumin) | koff (mouse serum albumin) | kon (mouse serum albumin) | Kd (human serum albumin [4]) | koff (human serum albumin [4]) | kon (human serum albumin [4])
B1 | 2.6 nM |  |  |  |  |  |  |  |  |  |  |  |  |  |  |  | 
B2 |  | 3.18 nM | 0.000261 s⁻¹ | 82000 M⁻¹ s⁻¹ | 3.31 nM | 0.000163 s⁻¹ | 49300 M⁻¹ s⁻¹ | 1.15 nM | 1.82 nM | 0.000826 s⁻¹ | 455000 M⁻¹ s⁻¹ | 1 nM | 0.00033 s⁻¹ | 331000 M⁻¹ s⁻¹ | 1.15 nM | 0.000505 s⁻¹ | 439000 M⁻¹ s⁻¹
B3 | 0.3 nM |  |  |  |  |  |  | 12.4 nM |  |  |  |  |  |  |  |  | 
